# B1: TPR t1 (parent)
# chain: GACCAAUCUGCCCUCAGAGCUCGAGAACAUCUUCGGAUGCAGAGGAGGCAGGCUUCGGUGGCGCGAUAGCGCCAACGUCCUCAACCUCCAAUGCAUCCCACCACAUGAUGAUGCCUGAAGAGCCUUGGUUUUUUG
# Variants of: B1
# Assay: polymerase ribozyme fitness, log enrichment relative to wild type (log ratio); higher = more active; in vitro selection for triplet polymerase activity
# Outline: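 Each subunit of a heterodimeric triplet polymerase ribozyme was represented by a PCR-built, transcribed mutant library that underwent triplicate single-round in vitro selection with frozen incubation at −7 °C. Extended constructs were recovered by gel excision, streptavidin-bead capture and RT-PCR, and Illumina sequencing of input and output libraries kept genotypes with ≥10 input reads and ≥1 read per output. Fitness is the logarithm of genotype enrichment relative to wild-type enrichment, from inverse-variance-weighted replicate averages, with a logarithm base of 2.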
row,Variant,polymerase ribozyme fitness (log ratio)
1,A29U G45C C115A U133A,-3.42
2,U32A G58C C94U,-3.96
3,C31U G36U G61U C82A A111U,-5.16
4,U32C G42A C56U C115U,-1.93
5,C31A A46U C72A,-5.82
6,U33A G48U G69U C97G,-3.18
7,U30C A43U,-4.23
8,C31A A50G U55G G107A C124U,-3.71
9,A29U U54G U55G C101U,-4.04
10,U30C C56G C70G U109A,-5.1
11,U33A C114U,-4.64
12,C31G G61U,-6.02
13,U32A G44A G63C U87C,-4.85
14,U30A G39C C49A,-5.37
15,U30C C97G A108U U112A C124G,-7.16
16,C31U G48A,-5.2
17,U32C U116A,-3.4
18,U30A C72G,-6.04
19,U32C G71U U129A,-1.48
20,U32C G93U,-0.79
21,U33C A43U,-5.07
22,U32C G48A G52U C114A,-4.17
23,U30C C49G G63U C70U A84C C114U,-6.54
24,U32G G35U C40U C86U A121U,-5.02

row,Variant,polymerase ribozyme fitness (log ratio)
1,U30G C56G U106A U125A,-2.32
2,U32C G39U C56U G58C,-0.298
3,C31U G60A G71A U78G C101U G110U U125A,-6.74
4,U32C U78C A100C,-2.28
5,C31G A50U G60C G110C,-6.92
6,U32C U81A A90G U112A G113A,-1.38
7,C31U C49G,-4.41
8,A29U G58A G71C U112A,-1.32
9,A29U G113C,-2.87
10,C31U G44U,-5.33
11,U32C G45A G63C C114U,-2.97
12,U32A C49G C123U,-4.37
13,C31U G120U,-4.56
14,U32C G35U A108G A121G,-7.39
15,C31U C40U G61U G120A,-4.29
16,U32A G44A U87C,-5.32
17,U33A C86G C114U,-4.98
18,U33A C89A G117U,-5.96
19,C31G A37U G71A C76U U78G A105C G110C,-6.15
20,U32C U78C C89A,-1.52
21,C31G C70A,-7.42
22,C31U C73G C89U,-5.24
23,C31A C72U U92G G113U,-6.05
24,C31A A118U,-5.02

row,Variant,polymerase ribozyme fitness (log ratio)
1,U32A C101U,-4.58
2,U32C C53U C56A A118U,0.16
3,C31U G71U,-4.09
4,U32C G77U U126G,-2.53
5,U30C G71A,-2.58
6,U30G C34G G35C A41U C53U C76U C124G,-8.38
7,U32C A41U C89G G93U,-4.07
8,C31U C53G,-3.58
9,C31A C115A,-4.37
10,C31U A84C C97A A121U,-6.87
11,C31G C72G,-6.27
12,U33A G52U G61C C115A,-4.91
13,U30G G69C A108C,-0.59
14,U33A G42A G52U G61A A121U,-5.46
15,C31A C88U A121G,-2.7
16,U32G G60A,-7.06
17,U33A C72A U78C U87A,-5.41
18,U30A G39C,-5.36
19,U32A G117A,-5.64
20,U32C G48U C56A G71U,-3.98
21,U30C U54A,-2.81
22,U32C C40G G45A G47A U54A G61U C88G G110C A111G G117A U125A,-7.2
23,C31U G63A C85U C124G,-4.75
24,U30G A43U G45U G47A C49A U106A A119G,-4.24

row,Variant,polymerase ribozyme fitness (log ratio)
1,U30G G60C C124U,-5.4
2,C31U C85A U106A,-2.67
3,C31U U87C U96A G120U,-5.92
4,C31A G45C C49U G69U C82U G107A,-5.05
5,U33A C62U,-5.03
6,U32C G47A G51A,-4.87
7,U33A C86U,-4.21
8,U32C C104U,0.382
9,A29U G47C C85U C123U,-4.09
10,A29U G45U A74G,-3.27
11,C31U C72G G120C,-5.23
12,U32C A84U C123G U131C,1.03
13,A29U G69C U81G U87G,-3.43
14,U32C G71U G110A C123U U131G,-4.9
15,U32A G47C C53G C86A,-6.08
16,A29U U59G U78G G120U G128C U134A,-2.27
17,U33A C56G G71U G93U C99U G110U G127C,-6.53
18,C31G A41C G58C C62U,-8.8
19,C31G C72U A95C G113A,-6.94
20,C31U C49U C76G U81G U96A C104U A108U C124G U130C,-5.23
21,U32C C56A U116G G122A U132C,-3.25
22,C31U A37G G69U,-3.72
23,U30C U106A,-1.11
24,A29U G52C C73G U132C G135U,-3.19

row,Variant,polymerase ribozyme fitness (log ratio)
1,U32C C62A,-1.92
2,U33A G48C G113C,-5.71
3,U32C G63U G69A,-4.13
4,U32C C124G G135U,0.917
5,C31G G52U G77A G117U,-6.19
6,A29U G45C U55G C64U G93U U109A G117U,-5.42
7,U32C G47U G48U G113C,-3.38
8,U30C G63A C124G,-3.09
9,C31A U54C G60U A121C,-5.42
10,U30A G71U,-4.91
11,U30C C86A G135C,-4.17
12,C31G G42C A111U,-6.49
13,C31U G61A,-3.81
14,C31U G61U,-4.59
15,C31A C72U,-5.82
16,C31U A111G,-5.05
17,U32A A50G C85U U87A,-4.8
18,U30A A121C,-3.22
19,U32C G63A U78G C98U G117U,-6.07
20,U32C,0.135
21,U32G,-6.71
22,U32A,-3.82
23,U33A C97U,-5.53
24,U32G U59C U112A G122U,-6.09

row,Variant,polymerase ribozyme fitness (log ratio)
1,C31U G51A C73U U106A,-3.91
2,A29U G45U G69U,-2.7
3,U32C U92A U96C U132A,-2.97
4,U33A G69A C79A A121G,-6.8
5,U30C C124U,-1.4
6,U32G G122A,-7.09
7,U30G C72U C80A A108C,-2.77
8,C31U A68U C114A G117C C124A,-5.73
9,A29U G63U U78C,-4.96
10,A29U G69U U116C G117C,-1.83
11,U32G G69U,-4.52
12,U32C C102G G113A,-7.53
13,U33A G44A C72A U112G,-6.21
14,U32C C49U,-0.805
15,U32C G69A C76G G77C,-4.8
16,U32C C49G C73G C88G A95C,-5.8
17,U30C G113C,-3.49
18,C31U G63C,-5.08
19,C31U G63U,-3.29
20,U33A A119G G120A,-3.37
21,A29U G47C A119G,-2.66
22,U30G G60C U112A G127U U129G,-5.06
23,U32C C72A C101U U112A C123G,-3.08
24,U32C G48U,-1.13

row,Variant,polymerase ribozyme fitness (log ratio)
1,U32A C40U C101A C124A,-3.05
2,U30A C56A C82A U87A C114G G122A,-6.34
3,U32C G60U U87C C101G,-5.05
4,A29U G45C G61A A111G C124G,-3.05
5,C31U G47U C73A U112C G120C,-5.43
6,U32C G57U,-0.164
7,U32C C56A,-1.29
8,U33A G44C G57U A121G,-4.61
9,U32C G48U C101U A118G,-3.71
10,U30A C73U,-5.38
11,U32C G113U C123U,-3.78
12,C31G U38G G51U G52C C94G G120U,-6.47
13,U30C U87A,-2.98
14,U33A C97A C123G,-4.21
15,U32C G47U G48U C104G G117U G127C,-6.32
16,A29U G44U A111G C124G,-3.58
17,C31G C124A U129G,-6.34
18,C31A A37U C88A A111G U112G U129A,-7.12
19,U32G C70A G117A,-5.24
20,U30C C64G C99G C123G,-7.65
21,U32C G47A,-1.18
22,U30C C56G G60U A84C,-3.79
23,U32C G36A G60U,-2.12

# From the RNAGym collection of RNA variant scans (doi:10.1073/pnas.2313332121)
